For the data set, the system named is ATP. Briefly: switch fluorescence ratio, 500 uM ATP over buffer (Cy3 cluster intensity, sum of 5 cycles each) (fold (ratio)); higher = stronger signal-on switching upon ATP binding; sequences stand for … in TCGTCGGCAGCGTCAGATGTGTATAAGAGACAGTTTTTTTTTTTTTTTTTTTTTTTTT…TC. The note with it: aptamer strand: ATP DNA aptamer (quencher-CACCTGGGGGAGTATTGCGGAGGAAGG + anchor), 100 nM annealed; ATP concentration: 500 uM. The procedure, abridged: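 The quencher-labelled ATP aptamer, at 100 nM, was annealed to Cy3-labelled switching-strand clusters on a modified Illumina MiSeq flow-cell. The clusters were imaged in selection buffer, then after 15 min with 500 uM ATP at 22 °C, and this buffer/ATP cycle ran five times with NaOH stripping and re-annealing between runs. Per-cluster fluorescence ratios, summed target-cycle over summed buffer-cycle Cy3 intensity, were averaged per switch-domain sequence. Clusters outside 100-1000 RFU were excluded.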

± gives the standard deviation of the averaged measurements.
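Further: ATP exposure 15 min at 22 °C before imaging.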

Turning to GCGATTCGGG, the switch fluorescence ratio came to 0.978 ± 0.01.
The result for TTTTGGGA reads 1.01 ± 0.064.
On to CGATGGGTCG, for which the switch fluorescence ratio came out at 1 ± 0.066.
The result for TTGCTGAGCC reads 0.96 ± 0.024; that for AAATTTCATA, 1.03 ± 0.01.
Then ATTGATGTA, with 1.0136 ± 0.00015.
On to ATAATGGTGT, for which the switch fluorescence ratio came to 1.03 ± 0.029.
Consider GGGTGTTGTC, for which the switch fluorescence ratio came out at 1.006 ± 0.01.
Then TTGTTTTATA, with 0.9733 ± 0.0064; and TGTGTTTTTA, with 1.006 ± 0.0016; and TTGAACCTTT, with 1.02 ± 0.012.
Then AATGAGTACG, with 1.02 ± 0.059; and GGAATTACAG, with 1.02 ± 0.046; and CGGAGAGGGT, with 1 ± 0.029.
The result for TTAACTACCG reads 1.042 ± 0.0084; that for TGTTATTTGA, 0.996 ± 0.0056.
As for GAGCTAGGAG, the switch fluorescence ratio was 1 ± 0.024.
For GAATATTTCT, the switch fluorescence ratio was 1.02 ± 0.021.
In the case of TGGCTTATTT, the switch fluorescence ratio stood at 0.988 ± 0.031.
Then CGCGTATTGT, with 0.999 ± 0.016; and TTCGGGAATA, with 1.03 ± 0.022; and ATAGACGGAT, with 0.987 ± 0.06.
On to GACTAGGCCT, for which the switch fluorescence ratio was determined as 0.988 ± 0.02.
Then GGGCGCTTCT, with 0.9913 ± 0.0072; and GAAATAAAAT, with 1 ± 0.024.
Consider AGGAAATATT, for which the switch fluorescence ratio was determined as 1.01 ± 0.012.
Then TGGCCGTATT, with 1 ± 0.056; and TAGAAACACT, with 1.05 ± 0.02.
With TTGGGGCACA, the switch fluorescence ratio was determined as 1.01 ± 0.031.
The result for GGGCAAAGGG reads 0.999 ± 0.041.
The result for TTGCGTAGTT reads 1.01 ± 0.029.
The result for TGTCGTCTGT reads 0.9932 ± 0.0063; that for AGACCACTTG, 1.036 ± 0.0069; that for CGCTGTGAAG, 1.02 ± 0.012.
For the sequence TGGGGTAGGC, the switch fluorescence ratio came to 1.02 ± 0.034.
Consider CCGTTGCGTG, for which the switch fluorescence ratio was 1 ± 0.036.
Then TATACCTTAA, with 1.051 ± 0.0042; and CTCAGACGGA, with 1 ± 0.043; and GATATTGTCA, with 1.04 ± 0.069.
As to CTAATCAGCT, the switch fluorescence ratio is 0.977 ± 0.019.
The result for GATGATGGGC reads 0.996 ± 0.035; that for GTATTTTCGC, 1.02 ± 0.017.
For the sequence TTGGTGGGTT, the switch fluorescence ratio is 0.994 ± 0.04.
As to AGAAGTTTTC, the switch fluorescence ratio was determined as 0.973 ± 0.038.
On to GATGTGTTGG, for which the switch fluorescence ratio worked out at 0.9595 ± 0.0048.
Regarding TAGATCGTTG, the switch fluorescence ratio turned out to be 0.977 ± 0.04.
For the sequence TTTTTTTGGA, the switch fluorescence ratio turned out to be 0.976 ± 0.021.
Take AGTAGATTCC: the switch fluorescence ratio was 1.042 ± 0.01.
Regarding GGGGGAGCGA, the switch fluorescence ratio turned out to be 0.98 ± 0.059.
As for GAAATACTCT, the switch fluorescence ratio is 1.44 ± 0.12.
Take CAAAAAGAAT: the switch fluorescence ratio turned out to be 1.003 ± 0.0048.
Consider TTGGGCAGTA, for which the switch fluorescence ratio turned out to be 0.978 ± 0.057.
GGGGCTTTTG: the switch fluorescence ratio was determined as 0.98 ± 0.04.
The result for ATGCCGTGGC reads 1.02 ± 0.033; that for AGAGTATCTA, 0.962 ± 0.048.
The result for TTTAATTCAT reads 1.008 ± 0.0088; that for ACCGGTTAGC, 1.02 ± 0.015.
The result for GTAATATTAA reads 1.0073 ± 0.00065.
Regarding AACGAGAGGG, the switch fluorescence ratio was determined as 1.04 ± 0.035.
The result for ATTGCGGGGG reads 0.994 ± 0.019.
Then AGTAATTTTG, with 1.01 ± 0.065; and ATTAGAAATG, with 0.9973 ± 0.0062.
Then AGTTTTAGTC, with 1.01 ± 0.017; and ACTGGGGCGG, with 1.022 ± 0.0063; and GCGGGGCTCA, with 1.12 ± 0.11.
Take GCTAAAGTCG: the switch fluorescence ratio stood at 0.9814 ± 0.005.
Then ACAGTGGGAA, with 1.014 ± 0.0044.

The values above are taken from the supplement of paper PMC10126150.
